Assay: yeast display, Sf9 membrane polyspecificity reagent, FACS + sequencing; frameworks hold sequencing errors
In short: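 Nanobodies from a synthetic yeast display library (Saccharomyces cerevisiae BJ5465), induced 36–48 hours with galactose, were stained 1 hour at 4 °C with 10% biotinylated, detergent-solubilized Sf9 membrane reagent, enriched on streptavidin microbeads, then FACS-sorted. Anti-HA (expression) and streptavidin (reagent binding) fluorescence set low and high (top ~1%) gates. Polyreactivity labels come from the gate of origin. Genes were colony-PCR amplified, MiSeq 2 × 250 sequenced and filtered by CDR length.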

Sequence | polyreactivity (PSR sort gate)
QVQRVESGGGLDQARGSLRLSCAASGITLDRYDMGWYRQAPGKERELVAAISRSGVRTYYADSVKGRFTISRDNAKNTVYLQRNSLKPEDPAVYYCNKGYARRYASGYDYWGQGTQVTVSS | high polyreactivity
QVQRVESGGGLFQAGGRLRLSCAASGLIFPWYARGWYRQAPGKERELVAAISVRGGSTYYADSVKGRFTISRDNAKNTVYLQMNSLKPEDTAVYYCAASKRRASYRYYYWGQGTQVTVSS | high polyreactivity
QVQRVESGGGLFQAGGRLRLSCAATGSIFTPNAMGWYRQAPGKERELVAAISSSSDRTYYADSVKGRFTISRDKAKNTVYLQMNSLKPEDTAVYYCAAYAQKRYYWGQGTQVTVSS | high polyreactivity
QVQRVESGGGLGLAGGSLRLSCAASGITFVLYALGGYRQAPGKERALVASITWDATDTYYADSVKGRFTISRDNAKNTEYIPMNSLKPDDTAVSYCNAAYYNYWWLEYDYWGQGTQVTVSS | high polyreactivity
QVQRVESGGGLVQAGCSLRLSCAASGLIFTRYDMGWNRPAPGKERELVAAISGDGGSTYYAESVKGRFTISRDNAKNTVYLQMNSLKPEDTAVYYCAADSARTPWDDYWGQGTQVTVSS | high polyreactivity
QVQRVESGGGLVQAGGRLRLSCAASGFIFSYNAMGWYRQAPGKERELVAAISWSGVSTYYADSVMGRFTISRDNAKNTVYLQMNSLKPEDTAVYYCSAVRLRYATPVQFNPYIFGYWGQGTQVTVSS | high polyreactivity
QVQRVESGGGLVQAGGSHRLSCAASGRIFSLNAMGWYRQAPGKERELVAAITTTGGTTYYADSVKGRFTISRDKAKNTVYLQMNSLKPEDTAVYYCAADYAPYNYLAYYFSGWLEYWGQGTQVTVSS | low polyreactivity
QVQRVESGGGLVQAGGSLRLRCAASGFTLGHYAMGWYRQAPGTERELVAVITSGSSTNYADSVKGRFTISRDNAKNTVYLQMNSLKPEDTAVIYCAAEHPYFIWLYYYWGQGTQVTVSS | low polyreactivity
QVQRVESGGGLVQAGGSLRLSCAACGSILPQYTMVWYRQAPGKERELVAAISKRGDRTYYADSVKGRFTISRDNAKNTVYLQMNSLKPEDTAVYYCAALGTGTGARSRYSVRFDYWGQGTQVTVSS | high polyreactivity
QVQRVESGGGLVQAGGSLRLSCAASGLIFGGYAMGWYRQAPGKERELVAAITSGGSTKYADSVKGRFTISRDNAKNTVYLQMNSLKPEDTAVYYCAASGWRNWWSARNYYWGQGTQVTVSS | low polyreactivity
QVQRVESGGGLVQAGGSLRLSCAASGLTFRRYGMGWYRQAPGKEREWVASISSRGGNTYYADSVKGRLTISRDKAKNTVYLQMNSRKPEETAVYYCAARHVLYGYYLYDYWGQGTQVTVSS | high polyreactivity
QVQRVESGGGLVQAGGSLRLSCAASGNTFTVNAMGWYRQAPGKERELVAAINYSGGSTYYADSVKGRFTISRDNAKNTVYLQKNSLKPEDTAVYYCAASPDELLYEMYYWGQGTQVTVSS | low polyreactivity
QVQRVESGGGLVQAGGSLRLSCAASGRIFGKYAMGWYRQAPGKERELVAAIDGSGSTNYADSVKGRFTISRDNAKNTVYLLMNSLKPEDTAVYYCATDHAQKFRYRSPREYWGQGTQVTVSS | low polyreactivity
QVQRVESGGGLVQAGGSLRLSCAASGRIFQVYAMGWSRPAPGKERELVAAITWSGGSSYADSVKGRFTISRDNAKNTVFLQMNSLKPEDTAVYYCAAPFYYYGVRFDYRGQGTQVTVSS | high polyreactivity
QVQRVESGGGLVQAGGSLRLSCAASGRIFSANAMGWYRQAPGKERELVATISTGGGRTYYADSVKGRFTISRDNAKNTVYLQMNSLKPEDTAVYYCNATRNYARVRYYYWGQGTQVTVSS | high polyreactivity
QVQRVESGGGLVQAGGSLRLSCAASGRIFSLNAMGWYRQAPGKEREFVAAISTSSGTTYYADSVKGRFTISRDNAKNTVYLQMNSLKPEDTAVYYCAAKRPSRYYPYRWGFDYWGQGTQVTVSS | high polyreactivity
QVQRVESGGGLVQAGGSLRLSCAASGRTFPWNVMGWYRQAPGKERELVAAISWSSGRTYYADSVKGRFTISRDNAKNTVYLQMNSLKPEDTAVYYCAAVYKVHSGLYEYWGQGTQVTVSS | high polyreactivity
QVQRVESGGGLVQAGGSLRLSCAASGRTFWRNAMGWYRQAPGKERELVARISWSGGSTYYADSVKGRFTISRDNAKNTVYLQMNSLKPEDTAVYYCAKYYPGRSAFSDGNYWVQGTQVTVSS | low polyreactivity
QVQRVESGGGLVQAGGSLRLSCAASGRTVGYYAMGWYRQAPGKERELLAAITRTGGSTHYADSVKGRFTISRANAKNTVYIQMNSLKPEDTAVYYCARDYRYTIPYDYWGQGTQVTVSS | low polyreactivity
QVQRVESGGGLVQAGGSLRLSCAASGSIFPRYAMGWYRQAPGKEREMVATISSGGSTYYADSVKGRFTISRDNAKNTVYLQMNSLKPEHTAVYYCAARKRPYTVINGMDYWGQGTQVTVSS | low polyreactivity
QVQRVESGGGLVQAGGSLRLSCAASGSIFSVYAMGWYRQAPGKERELVAAITSSGGSTYYADSVKGRFTISRDNAKNTVNFQMKSLKPEDTAVYYCAADKYLRRRSWYRYGYWGQGTQVTVSS | high polyreactivity
QVQRVESGGGLVQAGGSLRLSCAASGSIFYGNAMGWYRQAPGKERELVAAISWSGGSTYYADSVKGRFTISRDNAKNTVYLQMNSLKPEDTAVYYCATVADEPRAYSGYEESDYWGQGTQVTVSS | low polyreactivity

Sequence | polyreactivity (PSR sort gate)
QVQRVESGGGLVQAGGSLRLSCAASGSIFYVYVMGWYRLAPGKERELVAGISYRGGSTYYADSVKGRFTISRDNAKNTVYLQMNSLKPEDTAVYYCNAGVWTYWHIEMDYWGQGTQVTVSS | low polyreactivity
QVQRVESGGGLVQAGGSLRLSCAASGSTFKKYVMGWYRPAPGKERELVAAISGRGGSTYYADSVKGRFTISRDNAKNTVYLQMNSLKPEDTAVYYCNARKQTARFDSWGQGTQVTVSS | high polyreactivity
QVQRVESGGGLVQAGGSLRLSCAASGSTFSSYAMGWYRQAPWKERELVAAISRSGGSTHYADSLKGRFTISRDNAKNTVYLQMNSLKPEDSAVYYCAADTGRYLDSNYWGQGTQVTVSS | high polyreactivity
QVQRVESGGGLVQAGGSLRLSCAASGSTFVGYAMGWYRQAPGKERELVAAINDSGGSTYYADSVKGRFTISRDNAKNTVYLQMNSLKPEDTAVYYCAADSSGTSWYTFDYWGQRTQVTVSS | low polyreactivity
QVQRVESGGGLVQAGGSLRLSCAASGYTFQWYDMGWYRQAPGKERELVASISWRGGSTYYADSVKGRFTISRDNAKNTVYFQMNSLKPEDTAVYYCAASLLPDYQYDYWGQGTQVTVSS | low polyreactivity
QVQRVESGGGLVQAGGSLRLSCAASRRIFKLYAMGWYIQAPGKERELVAAINRRGGSTSYADSVKVRFTISRDYAKNTVYLQMNSLKPEDTAVYYCAASYTGRTVVQGYEYWGQGTQVTVSS | high polyreactivity
QVQRVESGGGLVQAGGSLRLSGAASGFTFHSYAMGWFRQPPGKERELVAAISTGGTRTYYADSVKGRFTISRDNAKNTVYLQMNSLKPEDTAVYYCAADLSRRVRIYSKYDSWGQGTQVTVSS | high polyreactivity
QVQRVESGGGLVQAGGSLRLSSAGSGFTYYRNAMGWYRQAPGKERELVAAISFSGGSTYYADSVKGRFTISRDNAKNTVYLQMNSLKPEDTAVYYCAREDYSHSFLTYDYWGQGTQLTVSS | low polyreactivity
QVQRVESGGGLVQAGGSLRVSCAASGSTFYVYGMGWYRQAPGKERELVAAISWSGGDTYYADSVKGRCTISRDNAKNTVYLQMNRLKPEDTAVYYCAAVYNYPVVGEYDYWGQGTQVTVSA | high polyreactivity
QVQRVESGGGLVQAGRSLRLSCAASGTIFGPYAMGWYRQAPGKERELVAAITIGRDNTYYADSVKGRFTISRDNAKNTVYLQINSLKPEDTAVYYCAAKYYGGKPHYYEYYYWGQGTQVTVSS | low polyreactivity
QVQRVESGGGLVQAGRSLRLSCAATGITFWVYAMGWYRQAPGKERELVAAISRRGGSTSYADSVKGRFTISRDNAKNTVYLQMNSLKPEDTAVYYCAATTYTHPYGYWGQGTQVTVSS | high polyreactivity
QVQRVESGGGLVQEGGSLRLSCAASGITFAGYAMGWYRQAHGKERELVAAISTRGGSTTYADSVKGRFTISLDNAKNTVYLQMNRLKPEDTAVYYCAADSYYRRYFGWYEYWGQGTQVTVSS | high polyreactivity
QVQRVESGGGLVQSGGSLRLSCAASGRIFYLYARGWNSQAPGKERELVAAITWSGGSTTYADSVKGRFTISRDNAKNTVYLQMNSLKPEDTAVYYCNADGWSFPSFSPMDYWGQGTQVTVSS | low polyreactivity
QVQRVESGGRLVQAGGSLRLSCAPSGFTFQDYAMGWSRQAPGKERELVAAISRNGGSTYYADSVKGRFTISRDNAKNTVYLQMNSLKPEDTAVYYCNADSHHRRGSRDYCGQGTQVTVSS | low polyreactivity
QVQRVESGGVLVQAGGSLRLSCAASGITFYVYAMGWYRQAPGKERELVASITRSVGITSYADSVKGRFTISRDNSKNTVYLQMNSLKQEDSAVYYCAAERSNLHYNIQGVGYWGQGTQVTVSS | low polyreactivity
QVQRVESRGGLVQAGGSLRLSCAASGSTFHRYVKGWSRTATGKERELVSVINSTGASTYYADSVKWRYTLSRDNAKNSVYLQMNSLKPEDTAVYYCARVTRRGPGYTTLYSRYDYWGQGTQVTVSS | low polyreactivity
QVQRVESVGGLVQAGGSLRFSCAASGSTFTANAMGWYRQAPGKEREFVAAITQSGGDTYYADSVKGRFTISRDNAKNTVYLQMNSLKPEDSEVYYCAAESAYFVALTHFYTVEFYYWGQGTQGTVSS | low polyreactivity
QVQRVETGRGIVQAGGILRLSCAASGRTFHLYAMGWYRQQPGKERELVADIDGDGGSTYYSDSVKGRFTISRDNAKNTVYLQMNSLKPEDTAVYDCAASRFDYWGQGTQVTVSS | low polyreactivity
QVQVEESGGGVVQAGGSLRLSCAAYGRIFFRNAMGWYRPAPGKERELVAVINTGGSTNYADSVKGRFTISRDNAKNTVYLQMNRLKAEDTAVYYCAVDRASRRTYNQYGYWGQGTQVSVSS | high polyreactivity
QVQVVDSGGGLVQAGGSLSLSCAASGSIFIYYAMGWYRQAPGKERELVAVINDDGSTNYADSVKGRFTISRDNAMNTVYLQMNSLKPEDTAVYYCNTTIGTYYSPSDYWGQGTQVTVSS | low polyreactivity
QVQVVESGGGFVQAGGSLRVSCAASGSTFRANAMGCYTQAPGKERELVAAISQSGGITYYADSVKGRFTISRDIAKNTVYLQMNSLKPEDTAVYYCAAKIALDNDYWGQGTQVTVSS | high polyreactivity

From the nanobody polyreactivity screen of Harvey et al. (2022)
